B1: BSI-502-003 (bispecific antibody, human IgG1, kappa)
heavy: EVQLVESGGGLVQPGGSLRLSCAASGFTFSTYGMSWVRQAPGKGLVWVATINSNGGSTSYPDSVKGRFTISRDNAKNTLYLQMNSLRAEDTAVYYCARFFRFRNAMDYWGQGTLVTVSSGGGGSGGGGSGGGGSGGGGSDIQMTQSPSSLSASVGDRVTITCRTSENIYSYLAWYQQKPGKAPKFLVYNAKTLAEGVPSRFSGSGSGTDFTLTISSLQPEDFATYYCQHYYGPPTWTFGQGTKVEIKGGGGSGGGGSQVQLVQSGAEVKKPGASVKVSCKASGYTFTTYWMHWVRQAPGQGLEWMGVIDPSDSDTTYNQKFKGRVTMTRDTSTSTVYMELSSLRSEDTAVYYCTRSLDGYYDYWGQGTLVTVSSASTKGPSVFPLAPSSKSTSGGTAALGCLVKDYFPEPVTVSWNSGALTSGVHTFPAVLQSSGLYSLSSVVTVPSSSLGTQTYICNVNHKPSNTKVDKKVEPKSCDKTHTCPPCPAPEAQGGPSVFLFPPKPKDTLYITREPEVTCVVVDVSHEDPEVKFNWYVDGVEVHNAKTKPREEQYNSTYRVVSVLTVLHQDWLNGKEYKCQVSNKALPAPIEKTISKAKGQPREPQVYTLPPSRDELTKNQVSLTCLVKGFYPSDIAVEWESNGQPENNYKTTPPVLDSDGSFFLYSKLTVDKSRWQQGNVFSCSVMHEALHNHYTQKSLSLSPG
light: DIQMTQSPSSLSASVGDRVTITCRPTENIYSYLAWYQQKPGKAPKLLIYFARTLAEGVPSRFSGSGSGTDFTLTISSLQPEDFATYYCQHHYGTPWTFGGGTKVEIKRTVAAPSVFIFPPSDEQLKSGTASVVCLLNNFYPREAKVQWKVDNALQSGNSQESVTEQDSKDSTYSLSSTLTLSKADYEKHKVYACEVTHQGLSSPVTKSFNRGEC
notes: hu1C5F12E9-V8 IgG with an anti-IL4R scFv (huC2C1A1A1-V15, VH-VL) at the N-terminus of the heavy chain; AQQ and YTE already stand in the entry
B2: BSI-502-001 (bispecific antibody, human IgG1, kappa)
heavy: EVQLVESGGGLVQPGGSLRLSCAASGFTFSTYGMSWVRQAPGKGLVWVATINSNGGSTSYPDSVKGRFTISRDNAKNTLYLQMNSLRAEDTAVYYCARFFRFRNAMDYWGQGTLVTVSSASTKGPSVFPLAPSSKSTSGGTAALGCLVKDYFPEPVTVSWNSGALTSGVHTFPAVLQSSGLYSLSSVVTVPSSSLGTQTYICNVNHKPSNTKVDKKVEPKSCDKTHTCPPCPAPEAQGGPSVFLFPPKPKDTLYITREPEVTCVVVDVSHEDPEVKFNWYVDGVEVHNAKTKPREEQYNSTYRVVSVLTVLHQDWLNGKEYKCQVSNKALPAPIEKTISKAKGQPREPQVYTLPPSRDELTKNQVSLTCLVKGFYPSDIAVEWESNGQPENNYKTTPPVLDSDGSFFLYSKLTVDKSRWQQGNVFSCSVMHEALHNHYTQKSLSLSPGKGGGGSGGGGSQVQLVQSGAEVKKPGASVKVSCKASGYTFTTYWMHWVRQAPGQGLEWMGVIDPSDSDTTYNQKFKGRVTMTRDTSTSTVYMELSSLRSEDTAVYYCTRSLDGYYDYWGQGTLVTVSSGGGGSGGGGSGGGGSGGGGSDIQMTQSPSSLSASVGDRVTITCRPTENIYSYLAWYQQKPGKAPKLLIYFARTLAEGVPSRFSGSGSGTDFTLTISSLQPEDFATYYCQHHYGTPWTFGGGTKVEIK
light: DIQMTQSPSSLSASVGDRVTITCRTSENIYSYLAWYQQKPGKAPKFLVYNAKTLAEGVPSRFSGSGSGTDFTLTISSLQPEDFATYYCQHYYGPPTWTFGQGTKVEIKRTVAAPSVFIFPPSDEQLKSGTASVVCLLNNFYPREAKVQWKVDNALQSGNSQESVTEQDSKDSTYSLSSTLTLSKADYEKHKVYACEVTHQGLSSPVTKSFNRGEC
notes: huC2C1A1A1-V15 IgG with an anti-TSLP scFv (hu1C5F12E9-V8, VH-VL) at the C-terminus of the heavy chain
B3: BSI-502-002 (bispecific antibody, human IgG1, kappa)
heavy: EVQLVESGGGLVQPGGSLRLSCAASGFTFSTYGMSWVRQAPGKGLVWVATINSNGGSTSYPDSVKGRFTISRDNAKNTLYLQMNSLRAEDTAVYYCARFFRFRNAMDYWGQGTLVTVSSASTKGPSVFPLAPSSKSTSGGTAALGCLVKDYFPEPVTVSWNSGALTSGVHTFPAVLQSSGLYSLSSVVTVPSSSLGTQTYICNVNHKPSNTKVDKKVEPKSCDKTHTCPPCPAPEAQGGPSVFLFPPKPKDTLYITREPEVTCVVVDVSHEDPEVKFNWYVDGVEVHNAKTKPREEQYNSTYRVVSVLTVLHQDWLNGKEYKCQVSNKALPAPIEKTISKAKGQPREPQVYTLPPSRDELTKNQVSLTCLVKGFYPSDIAVEWESNGQPENNYKTTPPVLDSDGSFFLYSKLTVDKSRWQQGNVFSCSVMHEALHNHYTQKSLSLSPGKGGGGSGGGGSDIQMTQSPSSLSASVGDRVTITCRPTENIYSYLAWYQQKPGKAPKLLIYFARTLAEGVPSRFSGSGSGTDFTLTISSLQPEDFATYYCQHHYGTPWTFGGGTKVEIKGGGGSGGGGSGGGGSGGGGSQVQLVQSGAEVKKPGASVKVSCKASGYTFTTYWMHWVRQAPGQGLEWMGVIDPSDSDTTYNQKFKGRVTMTRDTSTSTVYMELSSLRSEDTAVYYCTRSLDGYYDYWGQGTLVTVSS
light: B2 light
notes: huC2C1A1A1-V15 IgG with an anti-TSLP scFv (VL-VH) at the C-terminus of the heavy chain; AQQ and YTE already stand in the entry

target: T1, recombinant human IL4Rα-his (human, UniProt P24394 26-231, limits assumed, biotin-labeled in the capture ELISA); assay: competitive ELISA: coated human IL4Rα-his, antibody titrated; blocked ligand biotin human IL4
T1 construct: In-house made; not shown: His tag at the C-terminus
Protocol: Briefly, 100 μL human IL4Rα-his proteins (prepared in-house, IL4Rα of SEQ ID NO: 33 with C-terminal His tag) were coated on 96-well micro plates at 2 μg/mL in PBS overnight at 4° C. The next day, plates were washed with wash buffer (PBS+0.05% w/v Tween-20, PBST), and blocked with 5% w/v non-fatty milk in PBST for 2 hours at 37° C. Plates were then washed again using wash buffer. Serially diluted bispecific antibodies or the controls (starting at 100 nM with a 5-fold serial dilution) in 2.5% w/v non-fatty milk in PBST, 100 μL per well, were added to the IL4Rα bound plates, and incubated at 37° C. for 40 minutes. […] Plates were washed again using wash buffer. Thereafter, the plates were added with 100 μL/well of streptavidin conjugated HRP (1:10000 dilution in PBST buffer, Jackson Immunoresearch, Cat #016-030-084) and incubated for 40 minutes at 37° C. Plates were washed again using wash buffer. Finally, TMB was added and the reaction was stopped using 1M H₂SO₄, and the absorbance was read at 450 nm. Data was analyzed using Graphpad Prism and IC₅₀ values were reported.

IC50 [nM] | Binder
0.229 | B1
0.248 | B2
0.299 | B3

target: T2, recombinant human TSLP-his (human, UniProt Q969D9 29-159, biotin-labeled in the ELISAs); assay: competitive ELISA: antibody pre-mixed with biotin human TSLP-his; blocked binding to coated TSLPR-Fc/IL7Ra-Fc
T2 construct: In-house made; not shown: His tag at the C-terminus
Protocol: Briefly, 100 μL human TSLPR-Fc proteins (SEQ ID NO: 34-SEQ ID NO: 38 fusion, prepared in-house) at 1 μg/mL in PBS, and 100 μL human IL7Ra-Fc proteins (SEQ ID NO: 35-SEQ ID NO: 38 fusion, prepared in-house) at 1 μg/mL in PBS were coated on 96-well micro plates overnight at 4° C. The next day, plates were washed with wash buffer (PBS+0.05% Tween-20, PBST), and blocked with 5% w/v non-fatty milk in PBST for 2 hours at 37° C. Plates were then washed again using wash buffer.
After incubation at 37° C. for 40 minutes, plates were washed 4 times using wash buffer. […] Plates were washed again using wash buffer. Finally, TMB was added and the reaction was stopped using 1M H₂SO₄. The absorbance was read on a microplate reader using dual wavelength mode with 450 nm for TMB and 630 nm as the reference wavelength, then the OD (450-630) values were plotted against the antibody concentration. Data was analyzed using Graphpad Prism and IC₅₀ values were reported.

IC50 [nM] | Binder
0.134 | B1
0.257 | B2
0.758 | B3

— US20260109758A1 (BIOSION, published 2026)
